In the supplement of paper PMC10567573:

B1: CCDC89 (parent)
chain: LNAELEEKMMQEAEKLKAQGEYSR
B2: EIF5 (parent)
chain: KQTIGNSCKACGYRGMLDTHHKLC

Variants of: B1
Experiment: protein stability index of a GFP-peptide fusion (GPS, HEK-293T) (PSI 1-6); higher = more stable
Details: c terminus: a fixed tail appended
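Also: lentivirally expressed fusions sorted by FACS into six bins by GFP to DsRed ratio, PSI derived from sequencing read proportions per bin multiplied by bin number.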

In order of falling protein stability index:
1. R24G  5.81
2. Y22N  5.79
3. R24H  5.78
4. S23D  5.7
5. R24D  5.67
6. R24V  5.64
7. Y22Q  5.64
8. R24K  5.53
9. R24A  5.49
10. R24P  5.48
11. R24S  5.38
12. R24C  5.37
13. Y22L  5.34
14. Y22M  5.29
15. Y22S  5.28
16. S23L  5.2
17. S23G  5.13
18. S23M  5.11
19. S23Q  5.04
20. R24N  5.03
21. R24M  4.99
22. S23T  4.98
23. S23W  4.97
24. S23K  4.92
25. R24I  4.86
26. S23F  4.75
27. S23C  4.73
28. R24F  4.66
29. R24Q  4.63
30. S23A  4.62
31. S23N  4.51
32. S23Y  4.47
33. S23V  4.43
34. S23I  4.19
35. S23H  3.95
36. R24W  3.81

Variants of: B2
Experiment: as above
Details: c terminus: a fixed tail appended

In order of falling protein stability index:
1. R14C  4.75
2. M16D  4.72
3. K9P  4.46
4. M16P  4.45
5. M16K  4.35
6. S7I  4.31
7. A10H  4.19
8. S7Y  4.17
9. I4Q  4.17
10. M16H  4.16
11. A10E  4.16
12. M16E  4.14
13. G5M  4.13
14. S7H  4.11
15. S7L  4.11
16. G5E  4.09
17. S7Q  4.08
18. A10Y  4.03
19. T3D  4.01
20. A10F  4.01
21. K9C  3.97
22. Y13K  3.97
23. S7A  3.96
24. I4D  3.95
25. N6Q  3.95
26. M16A  3.94
27. S7K  3.93
28. I4E  3.92
29. N6Y  3.92
30. S7F  3.91
31. M16G  3.91
32. M16Q  3.9
33. R14K  3.89
34. K1D  3.88
35. K9D  3.87
36. A10I  3.86
37. N6I  3.84
38. S7D  3.83
39. S7E  3.82
40. I4S  3.75
41. M16C  3.75
42. Y13E  3.75
43. Q2E  3.74
44. I4L  3.73
45. S7V  3.72
46. N6C  3.71
47. Y13A  3.7
48. R14P  3.69
49. I4A  3.68
50. A10D  3.68
51. T3H  3.67
52. N6T  3.66
53. T3P  3.66
54. I4N  3.63
55. I4M  3.63
56. M16N  3.63
57. N6D  3.63
58. N6E  3.62
59. Y13C  3.61
60. K1P  3.6
61. Q2H  3.6
62. S7M  3.58
63. I4V  3.57
64. K9A  3.57
65. I4G  3.56
66. G5D  3.53
67. R14T  3.52
68. N6V  3.52
69. R14S  3.51
70. M16L  3.51
71. S7G  3.5
72. S7C  3.5
73. K9E  3.5
74. T3M  3.5
75. Q2P  3.5
76. K1T  3.48
77. Q2A  3.48
78. G5V  3.46
79. Y13N  3.46
80. I4P  3.44
81. G5N  3.44
82. A10S  3.44
83. R14H  3.42
84. I4K  3.41
85. R14D  3.41
86. G5P  3.41
87. T3K  3.4
88. I4H  3.39
89. Y13S  3.37
90. A10T  3.36
91. R14Q  3.35
92. K1G  3.35
93. T3Y  3.35
94. N6F  3.34
95. R14I  3.33
96. N6G  3.33
97. A10V  3.33
98. Y13M  3.32
99. I4R  3.31
100. K1S  3.31
101. T3N  3.31
102. G5Q  3.3
103. K9T  3.3
104. A10L  3.3
105. S7T  3.29
106. I4T  3.29
107. R14G  3.29
108. Y13Q  3.29
109. A10K  3.29
110. A10R  3.27
111. G5K  3.26
112. S7N  3.25
113. I4C  3.24
114. N6S  3.24
115. Y13R  3.24
116. G5A  3.23
117. T3L  3.23
118. K1N  3.22
119. Q2G  3.22
120. Y13F  3.21
121. T3S  3.19
122. Y13T  3.19
123. K1R  3.18
124. T3R  3.18
125. Q2K  3.18
126. R14V  3.15
127. T3G  3.15
128. R14F  3.14
129. K1Q  3.14
130. K9V  3.13
131. G5I  3.12
132. N6P  3.12
133. A10M  3.12
134. S7R  3.11
135. K9Q  3.11
136. N6K  3.11
137. R14E  3.1
138. N6A  3.1
139. G15H  3.1
140. Q2C  3.09
141. A10C  3.09
142. I4Y  3.08
143. K9H  3.08
144. M16I  3.07
145. G12K  3.06
146. T3Q  3.06
147. K1W  3.05
148. C8L  3.05
149. Q2S  3.05
150. Q2T  3.05
151. R14N  3.04
152. T3A  3.04
153. N6H  3.03
154. Y13D  3.03
155. I4F  3.02
156. Q2N  3.02
157. A10W  3.01
158. G5C  3
159. Q2V  3
160. A10Q  3
161. G5T  2.99
162. T3E  2.99
163. K1A  2.98
164. R14M  2.97
165. K1C  2.97
166. K9I  2.97
167. R14L  2.96
168. G5H  2.96
169. N6L  2.96
170. G5S  2.95
171. K1E  2.95
172. K1V  2.95
173. K1H  2.95
174. G15D  2.94
175. Y13L  2.94
176. R14A  2.93
177. G12E  2.93
178. G15P  2.93
179. T3C  2.92
180. S7P  2.91
181. Y13V  2.91
182. K1L  2.9
183. K9W  2.89
184. K9S  2.88
185. C11V  2.88
186. T3F  2.86
187. K9M  2.85
188. Q2M  2.85
189. A10N  2.85
190. N6R  2.84
191. Q2D  2.84
192. N6M  2.83
193. I4W  2.82
194. K9G  2.82
195. G5Y  2.81
196. K9R  2.79
197. K9N  2.79
198. C8N  2.78
199. Y13H  2.77
200. G12M  2.76
201. Y13G  2.75
202. G15R  2.72
203. T3I  2.71
204. A10G  2.71
205. C8E  2.68
206. G12R  2.66
207. S7W  2.64
208. R14Y  2.64
209. G5F  2.64
210. A10P  2.63
211. N6W  2.62
212. K9Y  2.61
213. Q2L  2.61
214. K9L  2.6
215. G15Y  2.59
216. M16F  2.58
217. G12C  2.56
218. Q2R  2.56
219. K1F  2.55
220. K1Y  2.55
221. G12Q  2.54
222. Q2F  2.54
223. G5R  2.53
224. Q2I  2.51
225. G12T  2.5
226. C8D  2.48
227. T3W  2.46
228. G15N  2.45
229. Y13W  2.45
230. G15L  2.44
231. G15C  2.44
232. C11Y  2.4
233. T3V  2.38
234. G5L  2.37
235. K1M  2.36
236. G12H  2.36
237. G5W  2.34
238. G12I  2.29
239. C8K  2.28
240. C11L  2.28
241. G15T  2.27
242. G15I  2.26
243. C11Q  2.26
244. G12N  2.25
245. G15E  2.24
246. G15F  2.24
247. C11A  2.2
248. C8S  2.19
249. Q2Y  2.19
250. C11F  2.17
251. K9F  2.16
252. Y13I  2.16
253. G12Y  2.14
254. G12D  2.13
255. R14W  2.12
256. G15V  2.12
257. G15S  2.12
258. G15Q  2.12
259. G15K  2.11
260. C8A  2.06
261. C11W  2.06
262. C8T  2.05
263. K1I  2.04
264. C8G  2.03
265. Y13P  2
266. C8W  1.95
267. C11N  1.94
268. Q2W  1.93
269. G12L  1.92
270. C11P  1.92
271. C8Q  1.91
272. C8H  1.91
273. C11S  1.9
274. C8P  1.88
275. C11K  1.88
276. C8M  1.86
277. G12P  1.84
278. G15M  1.84
279. G12W  1.78
280. G15A  1.78
281. C8V  1.78
282. C8I  1.74
283. G12F  1.73
284. C11M  1.73
285. C11D  1.7
286. C8R  1.69
287. C11G  1.69
288. G12V  1.62
289. C11R  1.61
290. C11T  1.56
291. C11E  1.55
292. C11H  1.53
293. G12S  1.52
294. G15W  1.52
295. C11I  1.52
296. C8Y  1.44
297. C8F  1.44
298. G12A  1.37
